According to patent US9102755B2, “Highly stabilized epidermal growth factor mutants” (PnP Biopharm Co., Ltd., priority 2013, dated 2015):
“Also recorded” adds a separate entry of the source.

Assays:
[1] = Circular dichroism after incubation at 60° C.; assay type: physicochemical; conditions: for Percentage to wild-type EGF (CD signal value at 200 nm): 0.3 mg/ml, 20 mM sodium phosphate pH 5.5, 60° C., five days
Description: The stabilities of wild-type EGF and mutants should be confirmed through being stored at room temperature for a long period of time, but there is a disadvantage in that the time is too long. Therefore, the incubation test was performed at extreme environment for a short period of time. 0.3 mg/ml of each of the wild-type EGF and mutants was dissolved in 20 mM sodium phosphate (pH 5.5), and then subjected to the incubation in a water bath of 60° C. The sampling was performed per 24 hours unit, and then centrifuged at 13000 rpm and 4° C. for 15 minutes to collect the supernatant. The supernatant was diluted with 20 mM sodium phosphate (pH 5.5), and its structure was measured by using a circular dichroism. And then, the supernatant was added to 0.1 cm cell, and its structure was analyzed under the conditions of, in a region of 190 nm to 250 nm, band width 1 nm, response 0.25 sec, data pitch 0.1 nm, scanning speed 20 nm/min, cell length 1 cm, accumulation 8 times, a temperature of 20° C. […] In order to easily confirm such a result, the graph as illustrated in FIG. 3 is used using the ratio of the signal value at a first day to the signal value at 200 nm that has the biggest difference of signals. Table. […] From such a result, it can be confirmed that the EGF mutants prepared in the present invention have excellent thermal stability and solubility.

[2] = Structure and thermal stability (Tm) by circular dichroism; assay type: physicochemical; conditions: 0.1 mg/ml; for Structure change: circular dichroism 190-250 nm, 20 mM sodium phosphate pH 5.5, 20° C., versus wild-type EGF; for Tm (melting temperature): circular dichroism, 20° C. to 95° C. at 1° C./min
Description: The structure and thermal stability of the purified EGF mutant were measured through a circular dichroism analysis using a J-810 spectrometer (JASCO). As the wild-type EGF, the purified EGF prepared in Example 2 was used. In order to analyze the structure, each EGF was dissolved in 20 mM sodium phosphate (pH 5.5) to be uniformly a final concentration of 0.1 mg/ml. And then, the dissolved EGF solution was added to 0.1 cm cell, and then its structure was analyzed under the conditions of, as 190 nm to 250 nm region, band width 1 nm, response 0.25 sec, data pitch 0.1 nm, scanning speed 20 nm/min, cell length 1 cm, accumulation 8 times, and a temperature of 20° C.
In order to analyze the thermal stability, a wavelength of 200 nm was determined through a comparison analysis of far-UV at the Tm (melting temperature) of 20° C. and 95° C., and progressed in a concentration of 0.1 mg/ml in 0.1 cm cell. As the conditions, it was measured at 20° C. to 95° C. under condition of 1° C./min.
The structure is changed at the band of about 195 nm when generating a folding-unfolding phenomenon. Using it, the melting temperature (Tm) was measured in the range of 20 to 95° C., and thus the accurate Tm value was analyzed. As a result, as for the structure change, most mutants had the similar structure as the wild-type EGF, and thus there were few changes. […] It can be confirmed that the thermal stabilities of M2 and M3 were improved by 87° C.

[3] = Solubility of wild-type and mutant EGFs in 20 mM sodium phosphate (pH 5.5); assay type: physicochemical; conditions: for Solubility: 1 mg in 1 ml 20 mM sodium phosphate pH 5.5, supernatant, Bradford and UV method; for Solubility (Comparison with wild-type %): 20 mM sodium phosphate pH 5.5, relative to wild-type EGF
Description: 1 mg of the respective wild-type and mutant EGFs prepared was dissolved in 1 ml of 20 mM sodium phosphate (pH 5.5 that is the similarly pH environment as cosmetics). In order to remove undissolved EGF, the mixture thus obtained was centrifuged and then supernatant was obtained. The concentration of the supernatant thus obtained was measured by using a Bradford method and UV method.

[4] = system: NIH3T3 cell line; assay: Test of cell proliferation after incubation in cosmetic basic essence; assay type: cell-based; conditions: 60° C., 5 days, versus wild-type EGF, FIG. 4
Description: And then, the incubated samples were centrifuged to collect supernatants.

Substance: B-19-3: EGF mutant, 19th valine substituted with glutamic acid (SEQ ID NO: 68) (NSDSECPLSHDGYCLHDGECMYIEALDKYACNCVVGYIGERCQYRDLKWWELR; not fully specified; Epidermal growth factor; UniProt P01133 971-1023, looked up, variant V19E)
- Percentage to wild-type EGF (CD signal value at 200 nm) [1]: 84.22%
- Structure change [2]: No change
- Tm (melting temperature) [2]: (76° C.)

Substance: C-25-1: EGF mutant, 25th alanine substituted with serine (SEQ ID NO: 72) (NSDSECPLSHDGYCLHDGVCMYIESLDKYACNCVVGYIGERCQYRDLKWWELR; not fully specified; Epidermal growth factor; UniProt P01133 971-1023, looked up, variant A25S)
- Percentage to wild-type EGF (CD signal value at 200 nm) [1]: 106.38%
- Solubility [3]: 0.6178 mg/mL
- Solubility (Comparison with wild-type %) [3]: 122%
- Structure change [2]: No change
- Tm (melting temperature) [2]: (76° C.)

Substance: D-34-2: EGF mutant, 34th valine substituted with glutamic acid (SEQ ID NO: 76) (NSDSECPLSHDGYCLHDGVCMYIEALDKYACNCEVGYIGERCQYRDLKWWELR; not fully specified; Epidermal growth factor; UniProt P01133 971-1023, looked up, variant V34E)
- Percentage to wild-type EGF (CD signal value at 200 nm) [1]: 111.10%
- Structure change [2]: No change
- Tm (melting temperature) [2]: (76° C.)

Substance: D-35-6: EGF mutant, 35th valine substituted with glutamic acid (SEQ ID NO: 80) (CNCVEGYIGE)
- Percentage to wild-type EGF (CD signal value at 200 nm) [1]: 100.14%
- Structure change [2]: No change
- Tm (melting temperature) [2]: (76° C.)

Substance: M3: EGF mutant by fusion of A-8-2, D-38-10, and E-46-2; SEQ ID NO:2 (NSDSECPSSHDGYCLHDGVCMYIEALDKYACNCVVGYCGERCQYRCLKWWELR; not fully specified)
- Solubility [3]: 0.6817 mg/mL
- Solubility (Comparison with wild-type %) [3]: 134%
- Cell proliferation activity after incubation [4]: higher cell proliferation activity
- Structure change [2]: slightly changed; also recorded: Little change

Substance: Wild-type EGF: human epidermal growth factor, 53 amino acids, SEQ ID NO:1, produced in E. coli (Example 2) [reference compound]
- Percentage to wild-type EGF (CD signal value at 200 nm) [1]: 100%
- CD structure signal over time (in words) ([1]; 60° C., 20 mM sodium phosphate pH 5.5, sampling per 24 hours, compared with the mutants, FIG. 3): significantly decreased
- Solubility [3]: 0.5073 mg/mL
- Solubility (Comparison with wild-type %) [3]: 100%
- Tm (melting temperature) [2]: 76 °C
- Tm (melting temperature) ([2]; listed as Wide type EGF): (76° C.)
